The data set has as its target T1, hEndoV (FLJ35220, human endonuclease V) (Homo sapiens, UniProt Q8N8Q3 1-282).
T1 sequence: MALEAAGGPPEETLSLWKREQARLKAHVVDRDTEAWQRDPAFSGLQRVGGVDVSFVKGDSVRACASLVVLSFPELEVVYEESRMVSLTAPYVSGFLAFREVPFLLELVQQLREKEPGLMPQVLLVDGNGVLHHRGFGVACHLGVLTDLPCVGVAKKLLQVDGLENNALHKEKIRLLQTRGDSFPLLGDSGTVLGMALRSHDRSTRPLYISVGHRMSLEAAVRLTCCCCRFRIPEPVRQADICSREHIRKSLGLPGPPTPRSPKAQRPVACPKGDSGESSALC
Nature of the data set: EMSA; 5 mM CaCl2; EMSA: 0.2 nM 32P substrate, 10 mM HEPES-KOH pH 8.0, 1 mM DTT, 2% glycerol, 5 mM CaCl2, 4 °C 30 min; nondenaturing 8% PAGE.

B1: dsRNA without inosine (dsRNA)
RNA 1: CUGUAUGAUGAAGAUGCUGAC
RNA 2: GUCAGCAUCUUCAUCAUACAG
As for B1, the binding result is on record as “binds”.

The values are drawn from article PMC3741642.
